Experimental data as given in paper PMC5716252, “Heterologous expression, purification and function of the extracellular domain of human RANK” (BMC Biotechnology, 2017).

Biological target: T1, RANK-N, soluble form of the extracellular domain of human RANK (human, UniProt Q9Y6Q6 29-213, N-glycosylated (28 kDa band shifts to about 21 kDa with PNGase F); predicted sites Asn 105 and Asn 174, not verified)
T1 construct: Codon-optimised gene cloned into pPIC9K cut with XhoI and NotI; no tag is named; also called recombinant RANK-N
T1 sequence (looked up): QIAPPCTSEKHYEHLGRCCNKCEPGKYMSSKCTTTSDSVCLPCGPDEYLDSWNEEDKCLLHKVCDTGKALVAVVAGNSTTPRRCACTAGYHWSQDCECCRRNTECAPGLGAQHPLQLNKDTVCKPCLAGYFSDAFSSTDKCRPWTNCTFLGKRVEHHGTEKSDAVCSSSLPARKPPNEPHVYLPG
Assay: SPR; Biacore T100; RANKL amine-coupled to a CM5 chip; RANK-N (32.5 to 1000 nM) injected at 30 μl/min, 25 °C, contact 210 s, dissociation 400 s; running buffer 3 mM EDTA, 150 mM NaCl, 10 mM HEPES, 0.05% Surfactant P20; steady-state responses fit to the Hill equation
Details: both partners purified

Kd: 2620 nM
B1: RANKL (R&D Systems, 462-TEC-010/CF) (ligand, UniProt O35235 139-316, looked up)
chain: FSGAPAMMEGSWLDVAQRGKPEAQPFAHLTINAASIPSGSHKVTLSSWYHDRGWAKISNMTLSNGKLRVNQDGFYYLYANICFRHHETSGSVPTDYLQLMVYVVKTSIKIPSSHNLMKGGSTKNWSGNSEFHFYSINVGGFFKLRAGEEISIQVSNPSLLDPDQDATYFGAFKVQDID
notes: RANKL, recombinant protein bought from R&D Systems, catalogue 462-TEC-010/CF; As far as I recall, catalogue 462-TEC is R&D's recombinant mouse TRANCE/RANKL (soluble extracellular part, carrier-free); source: bought: R&D Systems (462-TEC-010/CF)
